# Test results published in publication PMC12689202.
# Target: C3b (biotinylated) (human) (UniProt P01024)
# Experiment: BLI; Octet RH384 (Sartorius); biotinylated C3b immobilized onto streptavidin biosensors; mini-CR1, FH or FHL-1 in the fluid phase
row,Substance,Kd [µM]
1,factor H (from UniProt P08603 19-1231) (natural protein),0.583
2,factor H-like protein 1 (from UniProt P08603-2 19-449) (natural protein),1.17
3,"mini-CR1 (soluble fragment of complement receptor 1, complement control proteins 8-10) (domain or fragment)",0.021
